The record followed here is article PMC11410943.

In general, Km refers to the substrate concentration at which the rate is half of its maximum. For orientation: Vmax means the rate approached at saturating substrate.

In this series the test system is Cn1c(=O)ccc2ccc(F)c(CCNC[C@H]3CN(c4cnc5c(n4)NC(=O)CO5)C(=O)O3)c21. The series is described as follows: MATE2-K transport in HEK293 cells. Format: in vitro ADME, human. Particulars: other: HEK293 cells; 37.0 °C.

Turning to MATE2-K (Homo sapiens), the Km came to 469 µM and the maximum rate (Vmax) amounted to 111 pmol/mg/min.
